From patent US20100015129A1

How the values were obtained:
[1] = target: integrin αvβ3 on chick embryo sternal chondrocytes (chick) (UniProt P26008); test: cell-based or functional assay
[2] = target: latent TGF-β1 released by human OA cartilage explants (human) (UniProt P01137); test: cell-based or functional assay
Sequence of latent TGF-β1 released by human OA cartilage explants (human) (P01137 30-390 limits assumed): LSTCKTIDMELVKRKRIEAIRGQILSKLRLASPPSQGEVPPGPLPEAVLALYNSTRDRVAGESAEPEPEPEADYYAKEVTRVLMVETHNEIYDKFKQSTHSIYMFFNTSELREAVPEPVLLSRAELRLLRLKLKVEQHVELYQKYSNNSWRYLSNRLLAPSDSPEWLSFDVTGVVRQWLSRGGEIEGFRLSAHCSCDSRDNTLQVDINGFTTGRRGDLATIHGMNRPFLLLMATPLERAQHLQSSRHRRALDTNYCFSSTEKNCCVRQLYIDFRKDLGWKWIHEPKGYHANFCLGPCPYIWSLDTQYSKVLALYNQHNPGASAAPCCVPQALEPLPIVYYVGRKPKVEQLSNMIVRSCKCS

Sequence of integrin αvβ3 on chick embryo sternal chondrocytes (chick) (P26008 20-1034): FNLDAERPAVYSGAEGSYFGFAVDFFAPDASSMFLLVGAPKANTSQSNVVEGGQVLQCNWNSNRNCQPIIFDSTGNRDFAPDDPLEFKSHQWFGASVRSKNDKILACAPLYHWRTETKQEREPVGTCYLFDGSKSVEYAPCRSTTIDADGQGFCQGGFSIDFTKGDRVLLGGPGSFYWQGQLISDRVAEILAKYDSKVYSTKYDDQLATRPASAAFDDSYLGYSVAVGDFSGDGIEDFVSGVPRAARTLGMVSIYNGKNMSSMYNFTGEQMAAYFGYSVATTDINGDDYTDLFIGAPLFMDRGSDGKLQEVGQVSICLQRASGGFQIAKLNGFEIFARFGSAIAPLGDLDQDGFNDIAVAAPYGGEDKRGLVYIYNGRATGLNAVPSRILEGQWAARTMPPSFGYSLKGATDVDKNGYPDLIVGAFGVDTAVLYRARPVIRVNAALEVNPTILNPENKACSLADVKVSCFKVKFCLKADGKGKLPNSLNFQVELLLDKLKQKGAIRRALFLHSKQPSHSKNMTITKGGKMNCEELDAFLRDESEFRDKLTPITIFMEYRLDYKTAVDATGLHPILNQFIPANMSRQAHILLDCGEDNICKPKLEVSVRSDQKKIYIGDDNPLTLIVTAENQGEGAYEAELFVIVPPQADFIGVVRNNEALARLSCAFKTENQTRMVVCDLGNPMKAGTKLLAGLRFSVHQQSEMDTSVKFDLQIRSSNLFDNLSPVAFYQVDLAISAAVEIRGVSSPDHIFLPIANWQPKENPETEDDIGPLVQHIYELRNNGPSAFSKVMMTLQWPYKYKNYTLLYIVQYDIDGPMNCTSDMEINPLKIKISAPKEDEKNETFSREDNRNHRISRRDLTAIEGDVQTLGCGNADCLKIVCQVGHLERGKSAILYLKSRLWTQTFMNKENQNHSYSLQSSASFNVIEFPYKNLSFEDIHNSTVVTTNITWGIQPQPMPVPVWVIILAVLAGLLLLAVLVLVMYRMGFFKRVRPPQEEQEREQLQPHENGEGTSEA

Substance	decrease in AP activity of F-spondin transfected, RA stimulated chick chondrocytes [1]	active TGF-β1 in OA cartilage explant supernatants (ELISA) [2]	active TGF-β1 in OA cartilage explant supernatants (ELISA) (pg/g cartilage) [2]
LM609, integrin αvβ3 blocking antibody (Chemicon International, Cat No MAB1976Z)	50%		
recombinant human F-spondin (R&D systems) (from UniProt Q9HCB6 29-807) (ligand)		225%	550
